Measurements published in the supplement of paper PMC10126150.
± gives the standard deviation of the averaged measurements.

Tested on: ATP
Assay: switch fluorescence ratio, 500 uM ATP over buffer (Cy3 cluster intensity, sum of 5 cycles each) (fold (ratio)); higher = stronger signal-on switching upon ATP binding; sequences stand for … in TCGTCGGCAGCGTCAGATGTGTATAAGAGACAGTTTTTTTTTTTTTTTTTTTTTTTTT…TC
Conditions: aptamer strand: ATP DNA aptamer (quencher-CACCTGGGGGAGTATTGCGGAGGAAGG + anchor), 100 nM annealed; ATP concentration: 500 uM
Outline: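 Cy3-labelled switching-strand clusters on a modified Illumina MiSeq flow-cell were annealed to 100 nM quencher-labelled ATP aptamer and imaged first in selection buffer, then after 15 min with 500 uM ATP at 22 °C. NaOH stripping and re-annealing separated each of five buffer/ATP cycles, and clusters outside 100-1000 RFU were excluded. The fluorescence ratio sums target-cycle Cy3 intensity over buffer-cycle Cy3 intensity per cluster and averages it per switch-domain sequence.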
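Note: ATP exposure 15 min at 22 °C before imaging.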

Sequence	switch fluorescence ratio
AATGTTAGAA	0.99 ± 0.05
CTCTGTGCTC	1.35 ± 0.083
GAGCATTGGA	0.992 ± 0.036
TGGTAATTTT	0.998 ± 0.017
TGATGTGGTG	0.976 ± 0.018
TTTAATGCTG	1.01 ± 0.021
TTCACGGGGG	1.018 ± 0.0078
CAATGATGCT	0.935 ± 0.018
GGTACCAAAA	0.992 ± 0.024
GAAAATGCAG	0.999 ± 0.062
CGGTGATCGT	1.02 ± 0.015
TCGAAAATCG	1 ± 0.049
TGGAAAGGCG	1.04 ± 0.06
AAAACCTTGG	1.05 ± 0.021
TTAAAGTTTG	1.06 ± 0.063
ATGGCTAGAA	0.985 ± 0.026
CAACGGGGCG	0.999 ± 0.028
TAAGGGGTGC	1.06 ± 0.014
TTGAAGGTCT	1 ± 0.05
TCCTAGGGGA	1.03 ± 0.0033
TTGGCATATC	1.89 ± 0.76
TATTAGGTGT	1.04 ± 0.04
GGCTTAGACG	0.959 ± 0.063

Sequence	switch fluorescence ratio
GTGAGTCAGC	1.06 ± 0.075
AAACTTTCTT	1.03 ± 0.021
GCTAATAGTT	1.01 ± 0.06
TTTGTACATT	1.01 ± 0.011
GCGGTATAC	2.72 ± 0.14
AGGTGGCGTC	1.03 ± 0.027
AATGGGTTCT	0.998 ± 0.079
TTGAGACAGG	1.0131 ± 0.00096
GCGTTTCTAG	0.992 ± 0.028
TTCCGGGTGA	1.23 ± 0.31
TTTATATGAG	0.999 ± 0.044
TTAAACCTCT	1 ± 0.019
ATAGGAGCGT	0.979 ± 0.038
GGATAGGGGA	1.01 ± 0.017
TTATTGACGC	0.937 ± 0.095
GTTCTTTGT	0.9894 ± 0.0093
TGACTAATAA	1.02 ± 0.013
GTGTACCCGT	0.96 ± 0.035
GGGTCAGTGT	0.952 ± 0.018
TTATGATGGG	0.99 ± 0.017
TTTAAGACC	0.979 ± 0.015
ATCTATGCGA	1.0635 ± 0.0004
TAAATCCTGG	0.961 ± 0.023

Sequence	switch fluorescence ratio
TAAGGGTGGG	1 ± 0.043
TGGTAAACGC	1.03 ± 0.05
GCCGGAAAGT	1.05 ± 0.07
AATTGTGTAT	0.973 ± 0.026
TCGTCAAGTT	1.007 ± 0.01
AGGGGCGAGA	0.999 ± 0.013
GTTTGTTATG	0.999 ± 0.042
AGACAATTCA	1.02 ± 0.019
TTTTTGGAGT	1.05 ± 0.07
AAAGGGGCTA	0.988 ± 0.02
GCAGTTTTCA	1.04 ± 0.095
GGTGGGGGCA	0.979 ± 0.029
AATTTGGCAT	1.012 ± 0.0063
TGTCGGAGAT	0.987 ± 0.018
TCAAGTTGGC	0.998 ± 0.09
TGGGGAACAA	1 ± 0.055
ATTCAACAAT	1 ± 0.016
CTTTTTTCGA	1.04 ± 0.039
GGTAGCGTCT	1.06 ± 0.09
AAAAGTGACC	1.01 ± 0.045
ATAGCCTGGT	0.978 ± 0.018
AGGGACAGGG	1.02 ± 0.05
TGAGCCCGCT	1 ± 0.016

Sequence	switch fluorescence ratio
TTGTTTTTCA	0.999 ± 0.027
AGGTCGGTGG	1.07 ± 0.11
GAGGGGTAAT	0.986 ± 0.012
TGAATTGGTC	1.06 ± 0.16
ACCTTGAATT	1 ± 0.0029
TAATGGCCTT	0.9862 ± 0.0021
ATTCGTGGGG	0.97 ± 0.032
TATCAGGGCT	0.999 ± 0.057
GATTTGATGG	0.987 ± 0.045
ATCATGGATG	0.997 ± 0.019
TTTGACATTT	1.02 ± 0.03
TCGGGGGTGT	1.02 ± 0.029
AGTCGGGGTT	0.979 ± 0.01
TGCCGGGCTT	1.01 ± 0.042
CCCTGGTGGG	1.04 ± 0.11
ACATATGGAT	1 ± 0.015
TTCGCGGTTA	1 ± 0.03
TAGCTCCGAC	1.399 ± 0.0031
GGGGCTCATG	0.99 ± 0.014
TTCAGATCCG	0.967 ± 0.0076
TTCATAATA	1.024 ± 0.0029
ATCAAAGTTT	0.994 ± 0.042
CTTTTTAGTG	0.982 ± 0.023

Sequence	switch fluorescence ratio
CCTGTGAGGT	1.01 ± 0.045
GAGGAAAATA	0.981 ± 0.011
AGATGCCTTC	1.01 ± 0.029
CGATTGTTGA	1.01 ± 0.037
TGCATTACGT	1.35 ± 0.015
ACAAGTAATA	1.06 ± 0.057
GGACGATGGG	0.995 ± 0.045
CGTTGGTGCG	0.98 ± 0.059
GTGAGGGTGG	0.9695 ± 0.0093
GGATGCGTG	0.985 ± 0.059
TTTTGGGTC	0.999 ± 0.034
TGTTTGAGTT	0.987 ± 0.039
TAAACACTAA	1.01 ± 0.038
GGGATTTGCA	0.9758 ± 0.0075
TGTATCGGGT	0.979 ± 0.035
TCCTGACGTC	1.043 ± 0.0039
CCCTTTATTT	1.29 ± 0.36
CGAGGGGGAG	1.004 ± 0.0097
GACAGTGGTT	1.05 ± 0.059
TTTAGGTAGG	1 ± 0.02
CATGGCCTTA	0.972 ± 0.0097
TTAAAGTGAT	0.995 ± 0.036
TGCCGGAATA	1.38 ± 0.041

Sequence	switch fluorescence ratio
GGAACGGGGC	0.961 ± 0.06
GGCTAGCTAC	1.09 ± 0.012
ATTTTAAACG	0.979 ± 0.021
TTTTCGTC	0.978 ± 0.03
CAAATTCTGT	1.009 ± 0.009
ACCTTTGTTT	1.001 ± 0.0054
TTCGGGTGGC	1.02 ± 0.051
GACGATTGTT	0.988 ± 0.021
AGATTATAGG	1.01 ± 0.018
TTATATACCA	1.03 ± 0.079
GCAAGGTTTT	0.979 ± 0.027
ACTAAATCCT	1.19 ± 0.02
AGAGCAGGTT	1.02 ± 0.014
CGGGAAAATG	0.988 ± 0.012
ACGATCTGTG	1.03 ± 0.033
TTACTTGATG	1.02 ± 0.031
GGGTTATGAG	0.977 ± 0.06
TTATAGGCGT	1 ± 0.02
AATTGGGGCG	0.969 ± 0.025
CGGTTTCAGT	0.996 ± 0.023
GTGGATAAAA	0.972 ± 0.029
TAATGGATCG	1 ± 0.044
TAAGGGGCTT	0.992 ± 0.021

Sequence	switch fluorescence ratio
ACAGTCGGCG	1.03 ± 0.021
ATGGTTGTTT	0.995 ± 0.02
GGAACGTGTT	1.004 ± 0.0097
TAAGGAGGAG	1 ± 0.013
CCGTTGAATT	1.008 ± 0.0056
CATTAGTCTC	1.02 ± 0.053
AGATTGTTAG	1.015 ± 0.0027
ACCTTTTGTA	1 ± 0.032
GTTTTATCAG	0.961 ± 0.039
GTTGGGATTC	0.986 ± 0.049
TTTGATGCCG	0.973 ± 0.03
TGATTCCATT	0.9991 ± 0.0052
GTCTCTTCAT	0.986 ± 0.026
TTAGGATAGG	1.005 ± 0.0021
TATCGTAGTG	0.98 ± 0.038
GGTCTGCTTA	0.9828 ± 0.0065
CCTTGGGTAT	1.01 ± 0.034
TCATCAGGGC	1.08 ± 0.034
ATCTATCGGA	1.0073 ± 0.00071
